US20230137139A1, “BIOSYNTHESIS OF CANNABINOIDS AND C[…]” (priority 2020, published 2023)

Legend:
[1] = test system: CBCA, THCA, and CBDA production; CBGA residual substrate; experiment: In vivo TS activity assay, Example 3 metagenomic CBCAS screen, cultures fed olivetolic acid; type: cell-based, S. cerevisiae; conditions: for Mean CBCA / Mean CBDA / Mean THCA: metagenomic CBCAS candidates in S. cerevisiae, secondary screen, quadruplicate; for Mean CBCA / Mean CBDA / Mean THCA / % CBCA / % CBDA / % THCA: fed 1 mM olivetolic acid; for Average CBGA residual substrate: olivetolic acid fed (Table 12); for % CBCA / % CBDA / % THCA: share of terminal cannabinoid product profile
Experimental: (§1) An assay to detect TS activity was conducted as follows: each thawed glycerol stock of candidate CBCAS transformants was stamped into a well of YEP+4% dextrose media. Samples were incubated at 30° C. in a shaking incubator for 2 days. A portion of each of the resulting cultures was stamped into a well of YEP+4% galactose+1 mM olivetolic acid (FIG. 1 Structure 6a). Samples were incubated at 20° C. and shaken in a shaking incubator for 4 days. Every 24 hours during those 4 days, 2% galactose and 1 mM olivetolic acid were spiked into the cultures. Sodium citrate buffer adjusted to pH 5.5 was added to each well at a final concentration of 100 mM. Samples were incubated at 20° C. and shaken in a shaking incubator for 2 days. A portion of each of the resulting production cultures was stamped into a well of phosphate buffered saline (PBS). Optical measurements were taken on a plate reader, with absorbance measured at 600 nm and fluorescence at 528 nm with 485 nm excitation. Samples were incubated at 30° C. in a shaking incubator for 2 days. 100% methanol was stamped into the production cultures in half-height deepwell plates. Plates were heat sealed and frozen. Samples were then thawed for 30 min and spun down at 4° C. A portion of the supernatant was stamped into half-area 96 well plates. CBCA, THCA, and CBDA production in the samples was quantified via liquid chromatography-mass spectrometry (LC-MS).
(§2) To explore whether other putative CBCASs may exist in the broader metagenome, a library of 1072 candidate CBCAS genes was designed using the A. niger CBCAS enzyme identified in Example 1 as a reference. Protein sequences were recoded in silico for expression in S. cerevisiae and synthesized in the integrative yeast expression vector shown in FIG. 5. Each candidate enzyme expression construct was transformed into an S. cerevisiae CEN.PK strain that also expressed a prenyltransferase enzyme capable of catalyzing reaction R^4 in FIG. 2. Strain t616313, expressing GFP, was included in the library screen as a negative control for enzyme activity. Strain t807925, expressing the A. niger enzyme identified in Example 1, was included in the library screen as a positive control for enzyme activity. All candidate enzymes in the library, as well as the enzyme expressed by positive control strain t807925, included an N-terminal MFalpha2 signal peptide (SEQ ID NO: 16) (with a methionine residue added at the N-terminus of the MFalpha2 signal peptide) and a C-terminal HDEL signal peptide (SEQ ID NO: 17).
The library of candidate CBCAS enzymes was assayed for activity in a primary high-throughput screen using the assay described in Example 1. Production of CBCA, THCA, and/or CBDA in the samples was quantified via LC-MS.
(§3) Based on results of the primary screen, 70 strains were carried forward to a secondary screen to confirm activity observed in the primary screen. The experimental protocol for the secondary screen was identical to the primary screen, except that additional technical replicates were included per strain, and replicate production cultures for each strain were separately fed 1 mM olivetolic acid or 1 mM divaric acid. All strains were screened in quadruplicate (FIGS. 10A-10C, Tables 10 and 11).

[2] = test system: CBCVA, THCVA, and CBDVA production; CBGVA residual substrate; experiment: In vivo TS activity assay, Example 3 metagenomic CBCAS screen, cultures fed divaric acid; type: cell-based, S. cerevisiae; conditions: for Average CBGVA residual substrate: divaric acid fed (Table 12); for Mean CBCVA / Mean CBDVA / Mean THCVA: secondary screen, S. cerevisiae, quadruplicate, LC-MS; for Mean CBCVA / Mean CBDVA / Mean THCVA / % CBCVA / % CBDVA / % THCVA: cultures fed 1 mM divaric acid; for % CBCVA / % CBDVA / % THCVA: share of terminal cannabinoid products
Experimental: as §1, §2, §3

CBCA production = experiment: In vivo TS activity assay, Example 4 CBCAS enzymes with and without signal peptides, no pH adjustment; type: cell-based; conditions: strains with (Y) or without (N) N-terminal and C-terminal signal peptides; no pH adjustment at Day 4; S. cerevisiae
Experimental: as §1
A library of 20 CBCAS enzymes selected from Example 1 and 3 was synthesized, including versions of the CBCAS enzymes with and without the N-terminal MFalpha2 signal peptide (SEQ ID NO: 16) and C-terminal HDEL signal peptide (SEQ ID NO: 17). Each candidate enzyme expression construct was transformed into an S. cerevisiae CEN.PK strain that also expressed a prenyltransferase enzyme capable of catalyzing reaction R^4 in FIG. 2. Strain t861555 expressing the A. niger CBCAS identified in Example 1, carrying both the Mfalpha2 and HDEL signal peptides was included in the library screen as a positive control for enzyme activity. Strain t861565 expressed the same A. niger CBCAS without the Mfalpha2 and HDEL signal peptides.
The strains were screened using the assay described in Example 1 with the following exception: at Day 4 samples were not subjected to a pH adjustment and a further 2 days of incubation at 20° C.

Molecule	Mean CBCA [1]	Mean CBDA [1]	Mean THCA [1]	Average CBGA residual substrate [1]	% CBCA [1]	% CBDA [1]	% THCA [1]	Average CBGVA residual substrate [2]	Mean CBCVA [2]	Mean CBDVA [2]	Mean THCVA [2]	% CBCVA [2]	% CBDVA [2]	% THCVA [2]	Average CBCA (CBCA production)
t808247 (protein) MGNTTSIAAGRDCLVSAVGPAHVTFQDALLYQTTAVDPYNLNIPVTPAAVTYPQSAEEIAAVVKCASDYDYKVQARSGGHSFGNYGLGGQNGAIVVDMKHFSQFSMDESTFVATIGPGTTLGDLDTELYNAGGRAMAHGICPTIRTGGHLTVGGLGPTARQWGLALDHIEEVEVVLANSSIVRASNTQNQDILFAVKGAAASFGIVTEFKVRTQEAPGLAVQYSFTFNLGSPAQKAKLVKDWQAFIAQENLSWKFYSNLVIFDGQIILEGIFFGSKEEYDELDLEKRFPTSEPGTVLVLTDWLGMIGHALEDTILKLVGDTPTWFYAKSLGFTPDTLIPDSAIDDFFDYIHKTNAGTLAWFVTLSLEGGAINSVSEDATAYGHRDVLFWFQVFVVNPLGPISQTTYDFTNGLYDVLAQAVPESAGHAYLGCPDPKMPDAQRAYWRSNLPRLEDLKGDLDPKDTFHNPQGVQVGP	27052.63 µg/L	420.85 µg/L	1703.93 µg/L	0.00 µg/L	92.72%	1.44%	5.84%	0.00 µg/L	2651.55 µg/L	15.16 µg/L	1783.19 µg/L	59.59%	0.34%	40.07%	
t808253 (protein) MGNTTSIAAGRDCLVSAVGPAHVTFQDALLYQTTAVDPYNLNIPVTPAAVTYPQSAEEIAAVVKCASDYDYKVQARSGGHSFGNYGLGGQNGAIVVEMKHFSQFSMDESTFVATIGPGTTLGDLDTELYNTGGRAMAHGICPTIRTGGHLTVGGLGPTARQWGLALDHIEEVEVVLANSSIVRASNTQNQDILFAVKGAAASFGIVTEFKVRTQEAPGLAVQYSFTFNLGSAAQKAKLVKDWQAFIAQENLSWKFYSNLVIFDGQIILEGIFFGSKEEYDELDLEKRFPTSEPGTVLVLTDWLGMIGHGLEDTILKLVGDTPTWFYAKSLGFTPDTLIPDSAIDDFFDYIHKTNAGTLAWFVTLSLEGGAINSVSEDATAYGHRDVLFWFQVFVVNPLGPISQTTYDFTNGLYDVLAQAVPESAGHAYLGCPDPKMPDAQRAYWRSNLPRLEDLKGDLDPKDTFHNPQGVQVGP	15518.14 µg/L	63.99 µg/L	916.93 µg/L	0.00 µg/L	94.05%	0.39%	5.56%	0.00 µg/L	1476.99 µg/L	0.00 µg/L	715.85 µg/L	67.35%	0.00%	32.65%	
t808240 (protein) MGNTTSIGVVRDCLTSAVGGVAAHVAFQDTLLYQTSAVKPYNLNVPVTPAAVTYPQSANEVAAIVKCASDYDYKVQARSGGHSFGNFGLGGQNGAIVIDMKHFSQFSMDESTFIATIGPGTTLGNLDTELYNAGNRAMAHGICPSIRTGGHLTVGGLGPTSRQWGLALDHVEEVEVVLANSSVVRASDTQNQDVLFAIKGAAASFGIVTEFKVRTEEAPGLAVRYSYSFNLGTPAEKAKLAKDWQAYIAQENLTWKFSSNLIIFDGQIILEGIFFGSKEEYDKLNLEKKFPTSEPGTVLVITNWLGMIGHALEDTILRLIGDSPTWFYAKSLGFTPNTLIFDSTIDEFFDYIHKANAGTLAWSVMLSLEGGAINAVPKNATAYGHRDVLFWVQIFVVNPLGPISQTTYGFTDGLYNILARGVPESAGHAYLGCPDPKMPDAQRAYWRNNYPRLEELKRDLDPKDIFHNPQGVRVAS	6248.43 µg/L	0.00 µg/L	115.70 µg/L	24393.82 µg/L	98.18%	0.00%	1.82%	4054.85 µg/L	4282.13 µg/L	0.00 µg/L	888.75 µg/L	82.81%	0.00%	17.19%	
t861559 (protein) MAPSISFSLLQISLLAYSGLVSGDFSLRQCLESAVSRVAFEGDPFYQLLSVRPYNLDISIVPAAVAFPADTNEVAAVVRCAAQNGYQVQAKSGGHSYANHGLGGTNGAVVVNLENLQHFSMNTTTWEATIGAGTLLGDVTKRLSDAGGRAMAHGTCPQVGSGGHFTIGGLGPSSRQFGAALDHIIEAEVVLANSSIIRASETENPDVFFAVRGAASGFGIVTEFKVRTEPEPGQAVRYSYSFSFSDTATRADLFKKWQAYVTQPDLPRELASTLTILEHGMFITGTFFGSKEEYNALKIETEFPGFAKGGTLVLDDWLGLVSNWAEDLLLSEEEIEQMFEYIDNVDKGTLLWFAIFDLQGGAVGDVPVDATAYAHRDTLIWLQSYAINLFGRISETTVEFLERLNELTLTSTAKTVPYAAYPGYVDPRLTDAQAAYWGSNLARLNRIKAEIDPNNVFHNPQSVRPASG															0.00 µg/L
t861557 (protein) MLKTIAAVVFICSQAFLVRADLKSELTALGVGAVFPGDSVYTSDAKPYNLRFDFKPAAITFPNTPADVSQIVQIAGKYAHKVAPRGGGHSYISNGVGGMDNSIIADMSHFKSIVVHTNNDTATIETGNRLGDIALALFQYGRGMPHGACPYVGIGGHANFGGFGFISRSWGLTLDVVEAIDLVLANGTITTVSATQNPDLYWAMRGSGSSFGITTAIHVRTFSAPASGIIALDTWYLNLEQAVRALSSFQDFAHNTVTLPSYFGGEFVVNAGPSPGLLSITFFSGFWGPPNQYNSTLAPWKNSMPFPPNTTSYSQGNYIESLSARFGGAPLDTSLGPDNTDTFYVKSLIVPQVTISDEGAQVGISDKAWRALFQYLINEQPNLPVDWFIEVELWGGQNSAINAVPQASTAFAYRDLLWTLQMYSYTPNHQPPYPDAGFAFNDGMANSIIHNMPNGWNYGAYTNYVDNRLDDWQRLYYANHYPALQALKSRYDPSDTFSFPTSIELL															520.64 µg/L
t861555 (protein) MGNTTSIAGRDCLISALGGNSALAVFPNELLWTADVHEYNLNLPVTPAAITYPETAAQIAGVVKCASDYDYKVQARSGGHSFGNYGLGGADGAVVVDMKHFTQFSMDDETYEAVIGPGTTLNDVDIELYNNGKRAMAHGVCPTIKTGGHFTIGGLGPTARQWGLALDHVEEVEVVLANSSIVRASNTQNQDVFFAVKGAAANFGIVTEFKVRTEPAPGLAVQYSYTFNLGSTAEKAQFVKDWQSFISAKNLTRQFYNNMVIFDGDIILEGLFFGSKEQYDALGLEDHFAPKNPGNILVLTDWLGMVGHALEDTILKLVGNTPTWFYAKSLGFRQDTLIPSAGIDEFFEYIANHTAGTPAWFVTLSLEGGAINDVAEDATAYAHRDVLFWVQLFMVNPVGPISDTTYEFTDGLYDVLARAVPESVGHAYLGCPDPRMEDAQQKYWRTNLPRLQELKEELDPKNTFHHPQGVMPA															21237.64 µg/L
